Source: patent US20040005648A1, “PYK2 related products and methods” (Sugen, Inc., priority 1994, published 2004)

Biological target: Kv1.2-HA (delayed rectifier-type potassium channel Kv1.2 with HA tag) (UniProt P63142)
Test: cell-based or functional assay

PYK2 (wild type, full length)
inhibition of outward current in Xenopus oocytes, 8 min after the addition of 100 nM PMA: 95%
